Measurements taken from the supplement of paper PMC12338614.
± gives the uncertainty stated by the source.

B1: library; numbered along this chain (parent)
chain: MEVVDPQQLGMFTEGELMSVGMDTFIHRIDSTEVIYQPRRKRAKLIGKYLMGDLLGEGSYGKVKEVLDSETLCRRAVKILKKKKLRRIPNGEANVKKEIQLLRRLRHKNVIQLVDVLYNEEKQKMYMVMEYCVCGMQEMLDSVPEKRFPVCQAHGYFCQLIDGLEYLHSQGIVHKDIKPGNLLLTTGGTLKISDLGVAEALHPFAADDTCRTSQGSPAFQPPEIANGLDTFSGFKVDIWSAGVTLYNITTGLYPFEGDNIYKLFENIGKGSYAIPGDCGPPLSDLLKGMLEYEPAKRFSIRQIRQHSWFRKKHPPAEAPVPIPPSPDTKDRWRSMTVVPYLEDLHGADEDEDLFDIEDDIIYTQDFTVPGQVPEEEASHNGQRRGLPKAVCMNGTEAAQLSTKSRAEGRAPNPARKACSASSKIRRLSACKQQ

Variants of: B1
Test: STK11 functional score (HeLa growth suppression), rescaled enrichment; synonymous median = 1, nonsense median = 0 (normalised score)
Conditions: with HeLa; variant type: missense
Method in brief: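 The functional score takes the post/pre-selection log ratio, corrects it to wild type, rescales it to synonymous and nonsense medians, and merges it over codons and replicate transfections, with error from bootstrapping. Counts came from tiled gDNA amplicons sequenced on NextSeq (~2 million reads per tile). The libraries were POPCode codon-randomised, codon-optimised STK11 integrated by Bxb1 at an AAVS1 landing pad in HeLa, three regions with three transfections each.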

Row | Variant | STK11 functional score
1 | D141L | 1.63 ± 0.23
2 | H379I | 1.53 ± 0.16
3 | H379S | 1.55 ± 0.27
4 | H379G | 1.11 ± 0.57
5 | G215H | 0.951 ± 0.64
6 | E33F | 0.855 ± 0.23
7 | R409S | 1.02 ± 0.27
8 | R409C | 1.28 ± 0.46
9 | R409I | 1.24 ± 0.2
10 | K82C | 1.23 ± 0.15
11 | Y253C | 0.457 ± 0.26
12 | R384L | 1.43 ± 0.15
13 | I111P | 1.25 ± 0.36
14 | I111Y | 0.97 ± 0.1
15 | P280K | 1.67 ± 0.19
16 | S69E | 1.23 ± 0.091
17 | H202I | 1.31 ± 0.21
18 | R42T | 0.779 ± 0.39
19 | V390C | 1.06 ± 0.48
20 | V390D | 1.4 ± 0.28
21 | K329A | 1.58 ± 0.16
22 | Y36A | 0.73 ± 0.18
23 | P179S | 0.562 ± 0.19
24 | P179V | 0.541 ± 0.089

Row | Variant | STK11 functional score
25 | P179H | -0.0435 ± 0.096
26 | R301Y | 1.6 ± 0.3
27 | P387G | 1.58 ± 0.2
28 | L290V | 0.625 ± 0.089
29 | L290F | 0.664 ± 0.42
30 | L72H | 0.0684 ± 0.095
31 | E407G | 0.689 ± 0.64
32 | E407S | 1.57 ± 0.18
33 | A200W | 0.861 ± 0.091
34 | I303D | -0.579 ± 0.078
35 | S271A | 1.11 ± 0.31
36 | S271F | 1.03 ± 0.34
37 | S419A | 1.37 ± 0.38
38 | S419Y | 1.61 ± 0.027
39 | N226K | 0.86 ± 0.31
40 | P339M | 1.62 ± 0.14
41 | R297I | 0.0965 ± 0.092
42 | E14Q | 1.35 ± 0.3
43 | E14L | 1 ± 0.14
44 | P275F | 0.767 ± 0.26
45 | E65I | 0.756 ± 0.38
46 | T395N | 1.4 ± 0.21
47 | V338I | 1.47 ± 0.31
48 | N90R | 1.01 ± 0.18

Row | Variant | STK11 functional score
49 | D23H | 1.22 ± 0.68
50 | A318C | 1.23 ± 0.49
51 | I361Q | 0.616 ± 0.2
52 | I361D | 1.5 ± 0.17
53 | L101S | 1.43 ± 0.37
54 | S193E | 1.54 ± 0.33
55 | D207R | 1.55 ± 0.24
56 | Y292F | 0.991 ± 0.22
57 | V133S | 1.06 ± 0.3
58 | V133P | 1.53 ± 0.38
59 | K81R | 1.21 ± 0.16
60 | D258M | 0.663 ± 0.18
61 | I192C | 1.43 ± 0.27
62 | P6C | 1.1 ± 0.49
63 | P6F | 0.754 ± 0.11
64 | G15N | 1.69 ± 0.15
65 | P315K | 1.56 ± 0.27
66 | L184M | 0.45 ± 0.16
67 | A273W | 1.65 ± 0.18
68 | A273D | 0.919 ± 0.14
69 | Q112A | 1.24 ± 0.47
70 | I260W | 1.21 ± 0.38
71 | F354T | 0.37 ± 0.26
72 | F354Q | 1.61 ± 0.14

Row | Variant | STK11 functional score
73 | D68N | 1.31 ± 0.8
74 | E374G | 1.12 ± 0.33
75 | G381R | 1.48 ± 0.16
76 | G381C | 1.1 ± 0.44
77 | K44G | 0.448 ± 0.26
78 | E317G | 1.56 ± 0.17
79 | L105P | 0.588 ± 0.23
80 | L105I | 1.57 ± 0.36
81 | L105D | 0.494 ± 0.2
82 | E357S | 1.52 ± 0.15
83 | E357I | 1.56 ± 0.26
84 | E357F | 0.965 ± 0.41
85 | S428D | 1.21 ± 0.45
86 | S428W | 1.62 ± 0.15
87 | D176I | -0.156 ± 0.11
88 | R426G | 1.1 ± 0.26
89 | V150L | 0.401 ± 0.14
90 | L45N | 0.985 ± 0.86
91 | L45S | 1.36 ± 0.14
92 | E396H | 1.55 ± 0.14
93 | R74A | 0.0507 ± 0.14
94 | T230K | 1.29 ± 0.1
95 | M127A | 1.5 ± 0.31
96 | M127T | 1.32 ± 0.48

Row | Variant | STK11 functional score
97 | M127L | 0.382 ± 0.08
98 | M289P | -0.379 ± 0.11
99 | P222I | 1.13 ± 0.33
100 | D229T | 1.67 ± 0.13
101 | E98R | 0.172 ± 0.083
102 | E199R | 1.67 ± 0.31
103 | V116N | 0.962 ± 0.81
104 | V116H | 1.18 ± 0.58
105 | T328R | 1.5 ± 0.25
106 | T328D | 1.5 ± 0.26
107 | E376L | 1.42 ± 0.28
108 | T189R | 1.41 ± 0.14
109 | T244K | 0.388 ± 0.12
110 | T244A | 0.738 ± 0.12
111 | S325L | 1.57 ± 0.25
112 | E265F | 1.08 ± 0.34
113 | S169G | 1.29 ± 0.33
114 | P254R | 0.199 ± 0.14
115 | P254W | 0.882 ± 0.1
116 | P254F | 0.445 ± 0.29
117 | N412S | 1.48 ± 0.23
118 | L400A | 1.64 ± 0.3
119 | Y49I | 1.24 ± 0.13
120 | V20D | 1.59 ± 0.14

Row | Variant | STK11 functional score
121 | L353Y | 1.4 ± 0.4
122 | E375L | 1.04 ± 0.15
123 | L386C | 1.31 ± 0.42
124 | L386R | 1.43 ± 0.25
125 | F234V | 1.2 ± 0.36
126 | G279L | 1.41 ± 0.29
127 | R425M | 1.51 ± 0.29
128 | Y272M | 1.63 ± 0.14
129 | Y272A | 1.33 ± 0.22
130 | Y340L | 1.59 ± 0.16
131 | T367P | 1.41 ± 0.41
132 | T367G | 1.6 ± 0.14
133 | W308C | -0.11 ± 0.088
134 | Y118A | 0.627 ± 0.21
135 | Y126M | 0.654 ± 0.64
136 | Y126G | 0.669 ± 0.13
137 | L263I | 1.57 ± 0.28
138 | S404H | 1.6 ± 0.28
139 | C134R | 1.52 ± 0.09
140 | L67T | 0.53 ± 0.095
141 | L67D | 0.672 ± 0.33
142 | R86I | 1.24 ± 0.1
143 | K78S | -0.111 ± 0.1
144 | K78D | -0.161 ± 0.078

Row | Variant | STK11 functional score
145 | Y362C | 1.33 ± 0.15
146 | Y362M | 1.61 ± 0.21
147 | Y362L | 1.17 ± 0.24
148 | Y362T | 1.6 ± 0.14
149 | I88Q | -0.36 ± 0.084
150 | F204V | 1.24 ± 0.23
151 | G242V | -0.059 ± 0.094
152 | G242F | 0.0262 ± 0.098
153 | Q302L | 1.45 ± 0.23
154 | Q302P | -0.0839 ± 0.19
155 | D208E | 1.38 ± 0.51
156 | D208G | 1.37 ± 0.23
157 | K287S | 0.94 ± 0.2
158 | K287L | 0.865 ± 0.14
159 | T13F | 1.25 ± 0.15
160 | R310H | 1.5 ± 0.18
161 | R310C | 1.06 ± 0.17
162 | P149I | 0.249 ± 0.1
163 | K423T | 1.57 ± 0.22
164 | Y60W | 1.58 ± 0.15
165 | S422W | 1.4 ± 0.15
166 | V197M | -0.102 ± 0.17
167 | E293H | 1 ± 0.28
